Test results taken from the nanobody polyreactivity screen of Harvey et al. (2022).

Test: yeast display, Sf9 membrane polyspecificity reagent, FACS + sequencing; frameworks hold sequencing errors
Procedure, shortened: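 A synthetic nanobody library was expressed on Saccharomyces cerevisiae BJ5465 by galactose induction for 36–48 hours. The library was stained for 1 hour at 4 °C with 10% biotinylated, detergent-solubilized Sf9 membrane reagent and enriched with streptavidin microbeads before FACS. Low and high (top ~1%) gates were set on anti-HA fluorescence for expression and streptavidin fluorescence for reagent binding, and each polyreactivity label reflects the gate of origin.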

Sequence: QVQLVESGGGLVQAGGSLRLSCAASGSIFGRNDMGWYRQAPGKERELVARITRGGSTNYADSVKGRFTISRDNAKNTVYLQMNSLKPEDTAVYYCAKEFKYWGYPYDYWGQGTQVTVSS
- polyreactivity (PSR sort gate): low polyreactivity

Sequence: QVQLVESGGGLVQAGGSLRLSCAASGSIFGRYAMGWYRQAPGKERELVAAISYSGGSTYYADSVKGRFTISRDNAKNTVYLQMKSLKPEDTAFYYCAAEPSYYTRWFDGHYYYWGQGSQVTVSS
- polyreactivity (PSR sort gate): high polyreactivity

Sequence: QVQLVESGGGLVQAGGSLRLSCAASGSIFGRYAMGWYRQAPGKERELVATITFRDTSTYYADSVKGRFTISRDTAKYTVLLLMNSLKPEDTAVYYCAAVRADLWDIARYDYWGQGTQETVSS
- polyreactivity (PSR sort gate): low polyreactivity

Sequence: QVQLVESGGGLVQAGGSLRLSCAASGSIFGRYAMGWYRQAPGKESELVAAISANGGSTYYADSVKGRFTISRDNAKNTVYLQMNSLKPEDTAVYYCAAGSTRGYKLGYWGQGTQVTVSS
- polyreactivity (PSR sort gate): high polyreactivity

Sequence: QVQLVESGGGLVQAGGSLRLSCAASGSIFGRYGAMGWSRQSPGKERELVAAIRTSGVSTYYADSVKGRFTISRDNAKNTVYLQMNSLKPEDTAVYYCAARAGRYRWTRFDYWGQGTQVTVSS
- polyreactivity (PSR sort gate): low polyreactivity

Sequence: QVQLVESGGGLVQAGGSLRLSCAASGSIFGRYGMVCYRQAPGKERQLVAAITSGTGTNYADSVKGRFTISRDNALNTVYLQMNSLKPEDTAVYYCNALRLRGNYEYGYWGQGTQVTLSS
- polyreactivity (PSR sort gate): low polyreactivity

Sequence: QVQLVESGGGLVQAGGSLRLSCAASGSIFGRYTMGWYRQAPGKERELVAAISSSGGRTYYADSVKGRFTISRDNAKNTVYLQMNSLKPEDTAVYYCNKGYGYEYYWGQGTQVTVSS
- polyreactivity (PSR sort gate): low polyreactivity

Sequence: QVQLVESGGGLVQAGGSLRLSCAASGSIFGRYTMGWYRQAPGKERELVAAISWGGGSTYYADSVKGRFTISRDNAKNSVYLQMNSLKPEDTAVYYCAADTYWAIDPIYDYWGQGTQVTVSS
- polyreactivity (PSR sort gate): low polyreactivity

Sequence: QVQLVESGGGLVQAGGSLRLSCAASGSIFGSNAMGWYRQAPGKERELVAAISSRAGRTYYADSVKGRFTISRDNAKNTVYLQMNSLKPEDTAVYYCAALYWVYRNRWLYDYWGLGTQVTVSS
- polyreactivity (PSR sort gate): high polyreactivity

Sequence: QVQLVESGGGLVQAGGSLRLSCAASGSIFGSNTMGWYRQAPGKEREFVAAISFSGGSTYDADSVKGRFTISRDNAKNTVYLQMNSLKPEDTAVYYCAARQRRVGTSFYSSRRDYWGQGTQVTVSS
- polyreactivity (PSR sort gate): high polyreactivity

Sequence: QVQLVESGGGLVQAGGSLRLSCAASGSIFGSYAMGWYRQAPGKERELVAAITSAGSTNYADSVKGRFTISRDNAKNTVYLQMNSLKPEDTAVYYCAVRPGFGRSLWYGYWGQGTQVTVSS
- polyreactivity (PSR sort gate): low polyreactivity

Sequence: QVQLVESGGGLVQAGGSLRLSCAASGSIFGSYAMGWYRQAPGKERELVAAITSGGSTYADSVKGPFTISRDNPNKTVYLQMNSQKPDDTAVYYSNAKFYHSTSTLVQSEYDYWGQGTQVSVSS
- polyreactivity (PSR sort gate): low polyreactivity

Sequence: QVQLVESGGGLVQAGGSLRLSCAASGSIFGSYTMGWYRQAPGKEREFVAAINFSGGRTYYADSVKGRFTISRDNAKNTVYLQMNSLKPEDTAVYYCARRWRQARYDYWGQGTQVTVSS
- polyreactivity (PSR sort gate): high polyreactivity

Sequence: QVQLVESGGGLVQAGGSLRLSCAASGSIFGTNAMGRYRPAPGKERELVAAISWSGTSTYYADSVKGRFTISRDNAKNTVYLQMNSLKPEDTAVYYCAKRSGYSRGFYYWGQGTQVTVSS
- polyreactivity (PSR sort gate): high polyreactivity

Sequence: QVQLVESGGGLVQAGGSLRLSCAASGSIFGTNAMGWYRQAPGKEREMVAAISLSTGSTYYADSVKGRFTISRDKAKNTVYLQMNSLKPEDTAVYSCAAYYVTPIYYYLGQGTQVTVSS
- polyreactivity (PSR sort gate): low polyreactivity

Sequence: QVQLVESGGGLVQAGGSLRLSCAASGSIFGTNTMGWYRQAAGKERVLVAAIRLSDSSTYYADSVKGRFTISRDNAKKTVYLQMNSLKPGDTAVYYCAVDYRAYHYYRYDYWGQGTQVTVSS
- polyreactivity (PSR sort gate): low polyreactivity

Sequence: QVQLVESGGGLVQAGGSLRLSCAASGSIFGTNTMGWYRQAPGKERELVAAISGGGSTYYADSVKGRFTISRDNAKNTVYLQMNSLKPEDTAVYYCAVRSLRVDKYGYWGQGTQVTVSS
- polyreactivity (PSR sort gate): high polyreactivity

Sequence: QVQLVESGGGLVQAGGSLRLSCAASGSIFGTYAMGWYRQAPGKERELVARITRGVSTNYADSVQGRFTISRDNAKNTVYLQMNSLKPEDTAVYYCAAESGNRYEYWGQGTQVTVSS
- polyreactivity (PSR sort gate): low polyreactivity

Sequence: QVQLVESGGGLVQAGGSLRLSCAASGSIFGVNAMGWYRQAPGKERELVAAISVSGGRTYYADSVKGRFTISRDNAKNTVYLLMNSLKPEDTAVYYCAATTYIWPYDYWGQGTQVTVSS
- polyreactivity (PSR sort gate): low polyreactivity

Sequence: QVQLVESGGGLVQAGGSLRLSCAASGSIFGVNAMGWYRQAPGKERELVAGITTGGSTKYADSVKGRFTISRDNAKNTVYLQMNSLKPEDTAVYYCAATGKWYHFYHYGYWGQGTQVTVSS
- polyreactivity (PSR sort gate): low polyreactivity

Sequence: QVQLVESGGGLVQAGGSLRLSCAASGSIFGVNAMGWYRQTPGKERELVARINWSSGRTYYADSVKGRFTISRDNAKNTVYLQMNSLKQEDTAVYYCAAAYWRPGVRFFGPYDYWGQGTQVTVSS
- polyreactivity (PSR sort gate): high polyreactivity

Sequence: QVQLVESGGGLVQAGGSLRLSCAASGSIFGVYAMGWYRQAPGKERELVARISSGGGSTYYADSVKGRFTISRDNAKNTVYLQMNSLKPEDTAVYYCATRYYGYYPVNYWGQGTQVTVSS
- polyreactivity (PSR sort gate): high polyreactivity

Sequence: QVQLVESGGGLVQAGGSLRLSCAASGSIFGVYAMRWYRQAPGKERELVATISRSGAITYYADSVKGRFTISRDNAKNTVYLQMNSLKPEDTAVYYCAADFFSRDWGQGTQVTVSS
- polyreactivity (PSR sort gate): low polyreactivity

Sequence: QVQLVESGGGLVQAGGSLRLSCAASGSIFGVYTLGWYRQAPGKERELVAAISGSGGSTSYADSVKGRFTISRDNAKNTVYLQMTSLKPEDTAGYYCATRFPNIPPYDSLGQGTQVTVSS
- polyreactivity (PSR sort gate): low polyreactivity

Sequence: QVQLVESGGGLVQAGGSLRLSCAASGSIFGVYTMGWYRQAPGKERELVAAIRGVGSTNYADSVKGRFTISRDNAKNTVYLQMNSLKPEDTAVYYCASRYAYGMWGQGTQVTVSS
- polyreactivity (PSR sort gate): low polyreactivity

Sequence: QVQLVESGGGLVQAGGSLRLSCAASGSIFGVYTMGWYRQAPWKERELVAAISRNGGSTYYEDSVKGRFTISRDNAKNNVYLQMNSLKPEDTAVYYCATSTSRRYGSRHNYWGQGTQVTVSS
- polyreactivity (PSR sort gate): high polyreactivity

Sequence: QVQLVESGGGLVQAGGSLRLSCAASGSIFGWYAMGWYRQAPGKERELVAAITFSSVSTYYADSVKGRFTISRDNAKNTVYLQMNSLKPEDTAVYYCAAVVYYTFDYWGQGTQVTVSS
- polyreactivity (PSR sort gate): low polyreactivity

Sequence: QVQLVESGGGLVQAGGSLRLSCAASGSIFGWYAMGWYRQAPGTERELVAAIRRGGSTNYADSVKGRFTISRDNAKNTVYLQMNSLKPEDTAVYYCAAGKSGYSKRIFRYSFDYWGQGTQVTVSS
- polyreactivity (PSR sort gate): high polyreactivity

Sequence: QVQLVESGGGLVQAGGSLRLSCAASGSIFGYAMGWYRQAPGKERELVAAISFSGVSTYYADSVKGRFTISRDNAKNTVYLQMNSLKPEDTAVYYCNAYSDGDEDYWGQGTQVTVSS
- polyreactivity (PSR sort gate): low polyreactivity

Sequence: QVQLVESGGGLVQAGGSLRLSCAASGSIFGYNAMGWSRQAPGKERELVAAITGSGGSTYYADSVKGRFTISRDNAKNTVYLLMNILKPEDTAVYYCADDLVGGPLGYWDYDYWGQGTQVTVSS
- polyreactivity (PSR sort gate): low polyreactivity

Sequence: QVQLVESGGGLVQAGGSLRLSCAASGSIFGYNAMGWYRQAPGKERELVAAISNDGDNTYYADSVKGRFTISRDNAKNTVYLQMNSLKPEDTAVYYCATEYPLTYAYYYYDGGDYWGQGTQVTVSS
- polyreactivity (PSR sort gate): low polyreactivity

Sequence: QVQLVESGGGLVQAGGSLRLSCAASGSIFGYNTMGWYRQAPGKERELVATITRGGSTHYADSVKGRFTISRDNAKNTVYLQMNSLKPEDTAVYYCAATRLSYVRLYRFSQQYYYWGQGTQVTVSS
- polyreactivity (PSR sort gate): high polyreactivity

Sequence: QVQLVESGGGLVQAGGSLRLSCAASGSIFGYNVMGWYRQAPGKERELVAGITSGGSTNYADSVKGRFTISRDNAKNTVYLQMNSLKPEDTAVYYCNAEGVFGDGRSGFYWYDYWGQGTQVTVSS
- polyreactivity (PSR sort gate): low polyreactivity

Sequence: QVQLVESGGGLVQAGGSLRLSCAASGSIFGYTTMGWYRQGPGKERELVAAINWSDGHTNYADSVKGRFTISRDNANNTVYLQLNSLKPEDTAVYYCAADWYRSSWTYNYWGQGSQVTVSS
- polyreactivity (PSR sort gate): low polyreactivity

Sequence: QVQLVESGGGLVQAGGSLRLSCAASGSIFGYYAMGWYRQAPGKEREFVAAISSRKDSTYADSVKGRFTISRDNAKNTVYLQMNSLKPEDTAVYYCAASTFRLTYAGHSYDYWGQGTQVTVSS
- polyreactivity (PSR sort gate): high polyreactivity

Sequence: QVQLVESGGGLVQAGGSLRLSCAASGSIFGYYAMGWYRQAPGKERELVAAISGSGGSTYYADSVKGRFTMSRDNAKNTVYLQMNSLKPEDTAVYYCARVRGGYDKMYYWGQGTQVTVSS
- polyreactivity (PSR sort gate): high polyreactivity

Sequence: QVQLVESGGGLVQAGGSLRLSCAASGSIFGYYAMGWYRQAPGKERELVAAISSSGASTYYADSVKGRFTISRDNAKNTVYLQMNSLKPEDTAVYYCNAARRYPTRGGYWGQGTQVTVSS
- polyreactivity (PSR sort gate): high polyreactivity

Sequence: QVQLVESGGGLVQAGGSLRLSCAASGSIFGYYAMGWYRQTPGKERELVAAIRWRGGRTYYADSVKGRFTISRDNAKNTVYLQMNSLKPEDTAVYYCNTRRTGRRSTTPGDYWGQGTQVTVSS
- polyreactivity (PSR sort gate): high polyreactivity

Sequence: QVQLVESGGGLVQAGGSLRLSCAASGSIFGYYSMGCYRQAPGKERELVATITFGGGSTYYADSVKGRFTISRDNAKNTVYLQMNSLKPEDTAVYYCAADSGYLGFYGDEYSWGQGTQVTVSS
- polyreactivity (PSR sort gate): low polyreactivity

Sequence: QVQLVESGGGLVQAGGSLRLSCAASGSIFGYYSMGWYRQAPGKERELVASITSGDSTNYADSVKGRFTISRDNAKNTVYLQMNSLKPEDTAVDYCNTERGYYDEYDYWGQGTQVTVSS
- polyreactivity (PSR sort gate): low polyreactivity

Sequence: QVQLVESGGGLVQAGGSLRLSCAASGSIFGYYTMGWYRQAPGKERELVAAISKNGGSTYYADSVKGRFTISRDNAKNTVYLQMNSLKPEDTAVYYCAAEYTRKGVSGSGYDYWGQGTQVTVSS
- polyreactivity (PSR sort gate): low polyreactivity

Sequence: QVQLVESGGGLVQAGGSLRLSCAASGSIFGYYTMGWYRQAPGKERELVAAISSSGGRTYYADSVKGRFTISRDNAKNTVYLQLNSLKPEDTAVYYCAAVPIKRGLILGDRGYNYWGQGTQVTVSS
- polyreactivity (PSR sort gate): high polyreactivity

Sequence: QVQLVESGGGLVQAGGSLRLSCAASGSIFHDYAMGWYRQAPGKEREMVAAIRWSGGSTYYADSVKGRFTISRDNAKNTVYLQMNSLKREETAVYYCNAVTFGRDNVQLVKFGYWGQGTQVTVSS
- polyreactivity (PSR sort gate): low polyreactivity
